In patent publication US20100209439A1 (FORERUNNER PHARMA RESEARCH, published 2010):

Biological target: T1, Recombinant human Prominin-1 with C-terminal FLAG-tag, forcedly expressed on DG44 cells (human, UniProt O43490 20-865)
T1 construct: whole, on cells; Expressed in DG44 cells; also called Prominin-1 recombinant protein; cells forcedly expressing Prominin-1; not shown: FLAG-tag artificially added to the C terminus
T1 sequence (looked up): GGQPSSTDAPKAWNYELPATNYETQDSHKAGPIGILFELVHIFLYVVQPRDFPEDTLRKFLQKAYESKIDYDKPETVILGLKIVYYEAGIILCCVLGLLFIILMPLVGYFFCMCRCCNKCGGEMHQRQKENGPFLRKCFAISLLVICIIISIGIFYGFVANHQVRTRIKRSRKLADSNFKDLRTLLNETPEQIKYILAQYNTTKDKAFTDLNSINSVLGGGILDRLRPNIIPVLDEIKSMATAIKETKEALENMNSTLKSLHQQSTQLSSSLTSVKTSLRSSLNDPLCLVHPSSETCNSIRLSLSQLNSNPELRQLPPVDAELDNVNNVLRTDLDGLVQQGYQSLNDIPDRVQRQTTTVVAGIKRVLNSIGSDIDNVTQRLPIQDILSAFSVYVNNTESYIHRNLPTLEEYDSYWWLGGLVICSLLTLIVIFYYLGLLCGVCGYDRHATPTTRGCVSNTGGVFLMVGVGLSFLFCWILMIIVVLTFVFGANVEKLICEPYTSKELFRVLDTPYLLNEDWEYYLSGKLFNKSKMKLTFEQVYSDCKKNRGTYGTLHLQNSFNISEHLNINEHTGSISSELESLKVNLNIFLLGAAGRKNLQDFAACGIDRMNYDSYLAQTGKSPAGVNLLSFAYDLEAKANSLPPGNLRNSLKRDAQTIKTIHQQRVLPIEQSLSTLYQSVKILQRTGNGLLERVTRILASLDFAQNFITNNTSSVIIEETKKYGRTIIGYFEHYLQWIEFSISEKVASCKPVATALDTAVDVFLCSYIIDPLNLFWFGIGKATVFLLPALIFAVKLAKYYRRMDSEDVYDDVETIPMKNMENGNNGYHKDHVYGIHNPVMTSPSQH
Experiment: flow cytometry on DG44 cells forcedly expressing FLAG-tagged human Prominin-1

binding result: binds
B1: AC133.1 antibody (mouse IgG1, produced by hybridoma HB-12346) (antibody, V domains shown)
VH: QVQLQQSGAELVRPGASVKLSCKASGYTFSDFEMHWVKQTPVHGLEWIGDIDPGTGDTAYNLKFKGKATLTTDKSSSTAYMELRSLTSEDSAVYYCTLGAFVYWGQGTLVTVSA
VL: DVVVTQTPLSLPVSFGDQVSISCRSSQSLANSYGNTYLSWYLHKPGQSPQLLIYGISNRFSGVPDRFSGSGSGTDFTLKISTIKPEDLGMYYCLQGTHQPYTFGGGTKLEIKR
notes: The rest is mouse IgG1 heavy chain and Ig kappa light chain; Purified from hybridoma supernatant on Protein G; also called AC133 antibody; A133.1 antibody
